Results reported in PMC4417160, “RBM7 subunit of the NEXT complex binds U-rich sequences and targets 3′-end extended forms of snRNAs”.

Columns and labels:
Assay in all cases: fluorescence anisotropy; FA: 50 mM Tris pH 7.0 (also given as pH 8), 200 mM NaCl, 10 mM 2-mercaptoethanol, 20 C; NMR: 20 mM Bis-Tris pH 7.0, 200 mM NaCl, 4 mM 2-mercaptoethanol; pull-down: HSB, 1 h at 30 C
Conditions in all cases: protein: recombinant; tags: 6xHis-Smt3 removed with Ulp1; label: 5' fluorescein
RBM7 RRM = target: T1, RBM7 RRM (Homo sapiens (cDNA from HEK293T-Rex), UniProt Q9Y580 6-94)
T1 sequence: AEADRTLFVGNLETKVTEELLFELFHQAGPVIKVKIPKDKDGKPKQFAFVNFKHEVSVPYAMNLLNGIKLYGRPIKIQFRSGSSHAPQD

RBM7 RRM K40A = target: T2, RBM7 RRM K40A (Homo sapiens, UniProt Q9Y580 6-94, K40A)
T2 sequence: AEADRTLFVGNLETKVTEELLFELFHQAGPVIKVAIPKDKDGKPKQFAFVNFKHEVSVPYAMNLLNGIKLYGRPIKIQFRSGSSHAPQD

RBM7 RRM K81A = target: T3, RBM7 RRM K81A (Homo sapiens, UniProt Q9Y580 6-94, K81A)
T3 sequence: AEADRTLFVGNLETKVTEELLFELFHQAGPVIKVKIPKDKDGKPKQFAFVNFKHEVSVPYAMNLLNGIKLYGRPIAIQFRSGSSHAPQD

RBM7 RRM K38A = target: T4, RBM7 RRM K38A (Homo sapiens, UniProt Q9Y580 6-94, K38A)
T4 sequence: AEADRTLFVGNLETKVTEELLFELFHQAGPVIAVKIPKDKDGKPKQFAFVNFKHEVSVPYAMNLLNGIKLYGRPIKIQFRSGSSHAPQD

Binder: CUCU (ssRNA) [Y4]
- Kd (RBM7 RRM): 160 ± 10 µM

Binder: AAAAAAA (ssRNA) [A7]
- binding result (RBM7 RRM): no binding

Binder: AUUAUUA (ssRNA) [AU7]
- Kd (RBM7 RRM): 130 ± 10 µM

Binder: UUUUUUU (ssRNA) [U7]
- Kd (RBM7 RRM): 60 ± 10 µM

Binder: CUUCU (ssRNA) [Y5]
- Kd (RBM7 RRM): 90 ± 10 µM

Binder: CUCUCUC (ssRNA) [Y7]
- Kd (RBM7 RRM): 70 ± 10 µM
- Kd (RBM7 RRM K40A): 200 ± 20 µM
- Kd (RBM7 RRM K81A): 100 ± 10 µM
- Kd (RBM7 RRM K38A): 90 ± 10 µM
